Test results taken from PMC5344670, “Cryo-EM structure of the ATP-sensitive potassium channel illuminates mechanisms of assembly and gating” (eLife, 2017).

Molecular target: the molecule itself
Experiment: cryo-EM structure; digitonin-solubilised KATP channel complex in the presence of 1 mM ATP and 1 µM glibenclamide; single-particle analysis with C4 symmetry imposed

B1: rat Kir6.2 (natural protein)
chain: MLSRKGIIPEEYVLTRLAEDPTEPRYRTRERRARFVSKKGNCNVAHKNIREQGRFLQDVFTTLVDLKWPHTLLIFTMSFLCSWLLFAMVWWLIAFAHGDLAPGEGTNVPCVTSIHSFSSAFLFSIEVQVTIGFGGRMVTEECPLAILILIVQNIVGLMINAIMLGCIFMKTAQAHRRAETLIFSKHAVITLRHGRLCFMLRVGDLRKSMIISATIHMQVVRKTTSPEGEVVPLHQVDIPMENGVGGNSIFLVAPLIIYHVIDSNSPLYDLAPSDLHHHQDLEIIVILEGVVETTGITTQARTSYLADEILWGQRFVPIVAEEDGRYSVDYSKFGNTVKVPTPLCTARQLDEDRSLLDALTLASSRGPLRKRSVAVAKAKPKFSISPDSLS
notes: Kir6.2, rat, inwardly rectifying K+ channel family; the final model holds residues 32-356; The eLife digest calls it the mouse form; results and methods say rat; source: INS-1 cells clone 832/13 (rat insulinoma), co-infected with recombinant adenoviruses; purified with f-SUR1 (digitonin, anti-FLAG M2 agarose, FLAG peptide elution, size exclusion chromatography)
stoichiometry N: 4
